Data from US20020077289A1, “Angiostatin and endostatin binding proteins and methods of use” (priority 2000, published 2002).

Legend:
[1] = tested on: mammary tumor; conditions: i.v. technetium (99mTc) labeled rhEndostatin, 100 μCi/rat; personal communication; cited from earlier work
[2] = biological target: T1, rhTM3 (human tropomyosin isoform 3) (Homo sapiens, UniProt P09493); test: Surface plasmon resonance (BIAcore) binding to immobilized rhTM3; conditions: steady state model; soluble rhEndostatin over immobilized rhTM3 (3200 RU); 25° C; read-out: dissociation constant (KD) for the rhEndostatin/rhTM3 interaction
T1 construct: made in house; host or cells: E. coli BL21 (DE3), pET-21a(+)
Protocol: (A), 0, 10, 20, 40, 80 and 160 micromolar (μM) of rhEndostatin were injected at 5 microliters per minute (μl/minute) for 960 seconds through a biosensor flow cell that had been activated and blocked as a control for bulk refractive index and subsequently through a flow cell to which 3200 response units (RU) of rhTM3 had been immobilized. The binding kinetics were recorded and the differences between the two curves plotted for each rhEndostatin concentration. (B), 0, 11.5, 23 and 46 micromolar (μM) of rhAngiostatin were injected at 5 microliters per minute (μl/minute) for 900 seconds over a flow cell containing 3200 RU of rhTM3 as above. Samples were run in duplicate, the data corrected for bulk shift and the average of the 2 curves plotted. (C), Injection of 5 micromolar (μM) of rhEndostatin at 5 microliters per minute (μl/minute) for 240 seconds in the presence of 0, 6, 15, 30 and 45 micromolar (μM) of soluble rhTM3 over a flow cell containing 2000 RU of rhTM3. Samples were run in duplicate, the reference cell values subtracted and the average of each of the 2 curves plotted. The spikes in RU seen at the beginning and end of each injection are due to lag in flow caused by the rhTM3 and reference cells being non-adjacent.
Interactions between purified soluble rhEndostatin and rhTM3 were evaluated by surface plasmon resonance using the BIAcore 3000 (BiaCore, Piscataway, N.J.). The purified rhTM3 was immobilized on the flow cell of a CM-5 BIAcore biosensor chip. The running buffer was 0.01 M HEPES, pH 7.4, 0.15M NaCl and 0.005% polysorbate 20 (v/v). The competition experiments involving soluble rhTM3 were performed using PBS pH 7.4 as running buffer. All measurements were performed at 25° C. To correct for differences in bulk refraction all protein preparations were passed over an activated and blocked flow cell to which no protein had been coupled. Effects due to bulk shift were subtracted from experimental data.
Surface plasmon resonance performed using the BIAcore 3000 (BiaCore, Piscataway, N.J.) was used to assess the kinetics of rhEndostatin/rhTM3 binding. […]

[3] = tested on: B16-BL6 melanoma cells; test: B16-BL6 experimental metastasis assay; assay type: in vivo, C57BL/6J mice
Protocol: C57BL/6J mice were injected via the tail vein with 5×10^4 B16-BL6 melanoma cells on day 0. On day 3, groups of five mice received daily subcutaneous doses of either buffer control, 1.5 nmol (1.5 mg/kg/day) of rhEndostatin in combination with 0, 15, 75 or 375 nmol of control or E37 peptide, or control or E37 peptide alone for eleven days. All mice were sacrificed on day 14, and the number of pulmonary surface metastases in each animal counted. Error bars indicate standard deviation of the mean.
C57BL/6J mice (n=8) were injected intravenously (i.v.) with 5×10^4 B16-BL6 cells/mouse. Three days later treatment commenced. 100 μl of citrate-phosphate buffer (66 mM Sodium Phosphate, 17 mM Citric acid, 59 mM NaCl pH 6.2) containing 1.5 nmol of rhEndostatin and 100 μl of PBS containing either 0, 15, 75 or 375 nmol of control or E37 peptide were mixed and injected subcutaneously (s.c.) daily for 11 days. All mice were then sacrificed, their lungs removed and the number of surface metastases counted. Results were analyzed for statistical significance using the 2-tailed Student's t-test.
The following experiment was conducted to determine the interaction of E37 peptide and Endostatin protein. Briefly, the B16BL6 experimental metastasis assay, as known to those of skill in the art and further described in International Patent Application number PCT/US99/11418, was performed as follows. 5×10^4 B16-BL6 cells in 200 μl of PBS were injected into C57BL/6J mice via the tail vein. Three days post injection treatment was started. The injection received by eight groups of mice were: 1) citrate phosphate/PBS buffer, 2) ^30 μg Endostatin protein (in 100 μl PBS), 3) 30 μg Endostatin protein (in 200 μl PBS), 4) 30 μg Endostatin protein plus 50 times molar excess of control peptide (in 200 μl PBS), 5) 30 μg Endostatin protein plus 250 times molar excess of control peptide (in 200 μl PBS), 6) 30 μg Endostatin protein plus 10 times molar excess of E37 peptide (in 200 μl PBS), 7) 30 μg Endostatin protein plus 50 times molar excess of E37 peptide (in 200 μl PBS), and 8) 30 μg Endostatin protein plus 250 times molar excess of E37 peptide (in 200 μl PBS). Doses were administered daily for eleven days posterior to the thoracic cavity subcutaneously. All mice were sacrificed, the lungs removed and the number of surface metastases in each animal were counted under a stereo microscope.

T1 sequence (P09493 1-284 isoform P09493-3): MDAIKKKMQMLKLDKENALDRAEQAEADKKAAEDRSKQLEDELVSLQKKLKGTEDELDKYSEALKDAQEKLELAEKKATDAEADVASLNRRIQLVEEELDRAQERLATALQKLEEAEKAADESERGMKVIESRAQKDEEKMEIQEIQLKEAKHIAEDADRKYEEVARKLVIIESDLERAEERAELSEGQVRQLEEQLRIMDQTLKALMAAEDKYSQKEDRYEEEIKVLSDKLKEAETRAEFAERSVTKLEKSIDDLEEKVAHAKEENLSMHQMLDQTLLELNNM

Kd [2]: ~100 µM
B1: rhEndostatin: recombinant human Endostatin, antiangiogenic fragment of a C-terminal non-collagenous region of a collagen protein, produced in P. pastoris (protein)
chain: HSHRDFQPVLHLVALNSPLSGGMRGIRGADFQCFQQARAVGLAGTFRAFLSSRLQDLYSIVRRADRAAVPIVNLKDELLFPSWEALFSGSEGPLKPGARIFSFDGKDVLRHPTWPQKSVWHGSDPNGRRLTESYCETWRTEAPSATGQASSLLGGRLLGQSAASCHHAYIVLCIENSFMTASK
time after injection at which the tumor could be visualized [1]: 0.5 to 4 h | inhibition of lung metastasis ([3]; 1.5 nmol rhEndostatin co-administered with 250-fold molar excess of E37 peptide): 11% | inhibition of the formation of lung metastasis ([3]; 30 μg Endostatin protein alone, daily s.c. for eleven days): approximately 79% | inhibition of the formation of lung metastasis ([3]; 30 μg Endostatin protein plus 10 fold molar excess of E37 peptide): approximately 76% | inhibition of the formation of lung metastasis ([3]; 30 μg Endostatin protein plus 50 fold molar excess of E37 peptide): approximately 61% | inhibition of the formation of lung metastasis ([3]; 30 μg Endostatin protein plus 50 fold molar excess of negative control peptide): approximately 79% | inhibition of the formation of lung metastasis ([3]; 30 μg Endostatin protein plus 250 fold molar excess of E37 peptide): approximately 21% | inhibition of the formation of lung metastasis ([3]; 30 μg Endostatin protein plus 250 fold molar excess of negative control peptide): approximately 73% | inhibition of growth of experimental B16-BL6 lung metastases compared to buffer treated control mice ([3]; daily 1.5 nmol rhEndostatin (1.5 mg/kg/day)): greater than 70%
